In data set [1] the target is UL141-GPI (GPI-anchored ectodomain of HCMV UL141, FIX strain) (human cytomegalovirus (FIX strain)) (UniProt Q6RJQ3). Nature of the data set: flow cytometry on cells.
Data set [2] in a line: DISC immunoprecipitation and immunoblot, reconstituted DKO cells. Conditions: glycan lost; control: TRAIL-R1 WT. On the technique in general: In western blotting, separated proteins are transferred to a membrane and probed.
Data set [3] can be described thus: anti-TRAIL-R1 immunofluorescence after His-hTRAIL, reconstituted DKO cells. Conditions: glycan lost; control: TRAIL-R1 WT.
The nature of data set [4]: DISC immunoprecipitation and immunoblot, U2OS. Conditions: glycan lost; control: TRAIL-R1 WT.
Data set [5] can be described thus: immunofluorescence of receptor clustering after TRAIL, U2OS. Conditions: glycan lost; control: TRAIL-R1 WT.
Data set [6] is described as follows: surface flow cytometry with MD5-1, B16. Conditions: glycan lost; control: WT mTRAIL-R.
The nature of data set [7]: receptor clustering upon ligand binding, B16 and U2OS. Conditions: glycan lost; control: WT mTRAIL-R.
A further data set in a line: receptor internalization. Conditions: glycan lost; control: WT mTRAIL-R.

Sequence of UniProt Q6RJQ3 (Q6RJQ3 37-278): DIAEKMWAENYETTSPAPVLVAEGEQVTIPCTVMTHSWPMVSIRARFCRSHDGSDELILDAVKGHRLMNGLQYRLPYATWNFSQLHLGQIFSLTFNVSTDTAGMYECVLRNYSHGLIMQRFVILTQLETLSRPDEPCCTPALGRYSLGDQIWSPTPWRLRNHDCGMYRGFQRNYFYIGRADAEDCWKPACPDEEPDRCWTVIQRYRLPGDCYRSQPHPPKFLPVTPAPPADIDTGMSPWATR

For “TRAIL-R1-Fc N156A (N-glycosylation-deficient human TRAIL-R1 fused to human Fc IgG1) (from UniProt O00220 24-239) (Fc fusion)”, the fold higher binding affinity than glycosylated TRAIL-R1 in data set [1] amounted to 5 fold.
On to TRAIL-R1: N156A, for which the “other: DISC formation (caspase-8/-10 recruitment)” value in data set [2] and in data set [4] was “decreases” in each case. The oligomerisation result in data set [3] and in data set [5] was “decreases” in each case.

B1: mTRAIL-R (mouse TRAIL receptor): N99A (protein)
parent chain: MEPPGPSTPTASAAARADHYTPGLRPLPKRRLLYSFALLLAVLQAVFVPVTANPAHNRPAGLQRPEESPSRGPCLAGQYLSEGNCKPCREGIDYTSHSNHSLDSCILCTVCKEDKVVETRCNITTNTVCRCKPGTFEDKDSPEICQSCSNCTDGEEELTSCTPRENRKCVSKTAWASWHKLGLWIGLLVPVVLLIGALLVWKTGAWRQWLLCIKRGCERDPESANSVHSSLLDRQTSSTTNDSNHNTEPGKTQKTGKKLLVPVNGNDSADDLKFIFEYCSDIVPFDSWNRLMRQLGLTDNQIQMVKAETLVTREALYQMLLKWRHQTGRSASINHLLDALEAVEERDAMEKIEDYAVKSGRFTYQNAAAQPETGPGGSQCV
B1: the expression_or_secretion result in data set [6] is on record as “no change”.

B2: mTRAIL-R (mouse TRAIL receptor): N99/150A (protein)
parent chain: B1 parent chain
With B2, the expression_or_secretion result in data set [6] is recorded as “no change”.

B3: mTRAIL-R (mouse TRAIL receptor): N122/150A (protein)
parent chain: B1 parent chain
For B3, in data set [6], the expression_or_secretion result is listed as “no change”.

B4: mTRAIL-R (mouse TRAIL receptor): N99/122/150A (protein)
parent chain: B1 parent chain
Consider B4, for which, in data set [7], the oligomerisation result is given as “decreases”. Moreover, in data set [6], the expression_or_secretion result is reported as “decreases”.

B5: mTRAIL-R (mouse TRAIL receptor): N99/122A (protein)
parent chain: B1 parent chain
Consider B5, for which, in “receptor internalization”, the localisation_or_trafficking entry is given as “increases”. In data set [7], the oligomerisation result is listed as “decreases”. Moreover, the expression_or_secretion entry in data set [6] is listed as “no change”.

Values taken from paper PMC5344210.
